From patent US20260167699A1 (Chugai, published 2026)

B1: GpH7-A5/GpH7-B3 variant E333_09D/GpL16-k0 (antibody, human IgG1, kappa)
heavy 1: not shown
heavy 2: not shown
light: DIVMTQSPLSLPVTPGEPASISCQASESLVHSNRNTYLHWYLQKPGQSPQLLIYKVSNRFSGVPDRFSGSGSGTDFTLKISRVEAEDVGVYYCSQNTHVPPTFGQGTKVEIERTVAAPSVFIFPPSDEQLKSGTASVVCLLNNFYPREAKVQWKVDNALQSGNSQESVTEQDSKDSTYSLSSTLTLSKADYEKHKVYACEVTHQGLSSPVTKSFNRGEC
notes: copies: 1 + 1 + 2
B2: GpH7-A5/GpH7-B3 variant E333_06M/GpL16-k0 (antibody, human IgG1, kappa)
heavy 1: not shown
heavy 2: not shown
light: B1 light
notes: copies: 1 + 1 + 2
B3: GpH7-A5/GpH7-B3 variant H268_01G/GpL16-k0 (antibody, human IgG1, kappa)
heavy 1: not shown
heavy 2: not shown
light: B1 light
notes: copies: 1 + 1 + 2
B4: GpH7-A5/GpH7-B3 variant E333_11K/GpL16-k0 (antibody, human IgG1, kappa)
heavy 1: not shown
heavy 2: not shown
light: B1 light
notes: copies: 1 + 1 + 2
B5: GpH7-A5/GpH7-B3 variant H268_03V/GpL16-k0 (antibody, human IgG1, kappa)
heavy 1: not shown
heavy 2: not shown
light: B1 light
notes: copies: 1 + 1 + 2
B6: GpH7-A5/GpH7-B3 variant E333_16H/GpL16-k0 (antibody, human IgG1, kappa)
heavy 1: not shown
heavy 2: not shown
light: B1 light
notes: copies: 1 + 1 + 2
B7: GpH7-A5/GpH7-B3 variant E269_14T/GpL16-k0 (antibody, human IgG1, kappa)
heavy 1: not shown
heavy 2: not shown
light: B1 light
notes: copies: 1 + 1 + 2
B8: GpH7-A5/GpH7-B3 variant E269_13S/GpL16-k0 (antibody, human IgG1, kappa)
heavy 1: not shown
heavy 2: not shown
light: B1 light
notes: copies: 1 + 1 + 2
B9: GpH7-A5/GpH7-B3 variant E333_01G/GpL16-k0 (antibody, human IgG1, kappa)
heavy 1: not shown
heavy 2: not shown
light: B1 light
notes: copies: 1 + 1 + 2
B10: GpH7-A5/GpH7-B3 variant G236_13S/GpL16-k0 (antibody, human IgG1, kappa)
heavy 1: not shown
heavy 2: not shown
light: B1 light
notes: copies: 1 + 1 + 2
B11: GpH7-A5/GpH7-B3 variant E333_18N/GpL16-k0 (antibody, human IgG1, kappa)
heavy 1: not shown
heavy 2: not shown
light: B1 light
notes: copies: 1 + 1 + 2
B12: GpH7-A5/GpH7-B3 variant G236_10E/GpL16-k0 (antibody, human IgG1, kappa)
heavy 1: not shown
heavy 2: not shown
light: B1 light
notes: copies: 1 + 1 + 2
B13: GpH7-A5/GpH7-B3 variant G236_07I/GpL16-k0 (antibody, human IgG1, kappa)
heavy 1: not shown
heavy 2: not shown
light: B1 light
notes: copies: 1 + 1 + 2
B14: GpH7-A5/GpH7-B3 variant E333_07I/GpL16-k0 (antibody, human IgG1, kappa)
heavy 1: not shown
heavy 2: not shown
light: B1 light
notes: copies: 1 + 1 + 2
B15: GpH7-A5/GpH7-B3 variant G236_04F/GpL16-k0 (antibody, human IgG1, kappa)
heavy 1: not shown
heavy 2: not shown
light: B1 light
notes: copies: 1 + 1 + 2
B16: GpH7-A5/GpH7-B3 variant E333_14T/GpL16-k0 (antibody, human IgG1, kappa)
heavy 1: not shown
heavy 2: not shown
light: B1 light
notes: copies: 1 + 1 + 2
B17: GpH7-A5/GpH7-B3 variant H268_11K/GpL16-k0 (antibody, human IgG1, kappa)
heavy 1: not shown
heavy 2: not shown
light: B1 light
notes: copies: 1 + 1 + 2
B18: GpH7-A5/GpH7-B3 variant H268_02A/GpL16-k0 (antibody, human IgG1, kappa)
heavy 1: not shown
heavy 2: not shown
light: B1 light
notes: copies: 1 + 1 + 2
B19: GpH7-A5/GpH7-B3 variant E333_13S/GpL16-k0 (antibody, human IgG1, kappa)
heavy 1: not shown
heavy 2: not shown
light: B1 light
notes: copies: 1 + 1 + 2
B20: GpH7-A5/GpH7-B3 variant G236_09D/GpL16-k0 (antibody, human IgG1, kappa)
heavy 1: not shown
heavy 2: not shown
light: B1 light
notes: copies: 1 + 1 + 2
B21: GpH7-A5/GpH7-B3 variant H268_06M/GpL16-k0 (antibody, human IgG1, kappa)
heavy 1: not shown
heavy 2: not shown
light: B1 light
notes: copies: 1 + 1 + 2
B22: GpH7-A5/GpH7-B3 variant E269_09D/GpL16-k0 (antibody, human IgG1, kappa)
heavy 1: not shown
heavy 2: not shown
light: B1 light
notes: copies: 1 + 1 + 2
B23: GpH7-A5/GpH7-B3 variant H268_08L/GpL16-k0 (antibody, human IgG1, kappa)
heavy 1: not shown
heavy 2: not shown
light: B1 light
notes: copies: 1 + 1 + 2
B24: GpH7-A5/GpH7-B3 variant G236_03V/GpL16-k0 (antibody, human IgG1, kappa)
heavy 1: not shown
heavy 2: not shown
light: B1 light
notes: copies: 1 + 1 + 2
B25: GpH7-A5/GpH7-B3 variant E333_05P/GpL16-k0 (antibody, human IgG1, kappa)
heavy 1: not shown
heavy 2: not shown
light: B1 light
notes: copies: 1 + 1 + 2
B26: GpH7-A5/GpH7-B3 variant E333_04F/GpL16-k0 (antibody, human IgG1, kappa)
heavy 1: not shown
heavy 2: not shown
light: B1 light
notes: copies: 1 + 1 + 2
B27: GpH7-A5/GpH7-B3 variant E333_08L/GpL16-k0 (antibody, human IgG1, kappa)
heavy 1: not shown
heavy 2: not shown
light: B1 light
notes: copies: 1 + 1 + 2
B28: GpH7-A5/GpH7-B3 variant E333_19Q/GpL16-k0 (antibody, human IgG1, kappa)
heavy 1: not shown
heavy 2: not shown
light: B1 light
notes: copies: 1 + 1 + 2
B29: GpH7-A5/GpH7-B3 variant E269_07I/GpL16-k0 (antibody, human IgG1, kappa)
heavy 1: not shown
heavy 2: not shown
light: B1 light
notes: copies: 1 + 1 + 2

Molecular target: T1, FcγRIIIa (human, UniProt P08637 17-208)
T1 construct: extracellular domain; also called 3a; FcγRIIIa extracellular domain
Assay: SPR (Biacore);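 note: antibody variants captured on an SPR sensor chip, with FcγRIIIa passed over as analyte in HBS-EP+ buffer at 25 °C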

T1 sequence (P08637 other isoform, or with tags, fused parts or gaps): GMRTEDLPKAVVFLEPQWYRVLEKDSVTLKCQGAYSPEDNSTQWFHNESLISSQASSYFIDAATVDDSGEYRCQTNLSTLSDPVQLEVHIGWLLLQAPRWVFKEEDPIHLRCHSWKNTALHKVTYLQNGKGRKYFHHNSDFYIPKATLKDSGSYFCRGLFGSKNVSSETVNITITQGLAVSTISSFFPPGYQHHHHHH

| Binder | He/Con 3a |
| --- | --- |
| B1 | 115 % of GpH7-A5/GpH7-B3/GpL16-k0 |
| B2 | 100 % of GpH7-A5/GpH7-B3/GpL16-k0 |
| B3 | 95.7 % of GpH7-A5/GpH7-B3/GpL16-k0 |
| B4 | 97.7 % of GpH7-A5/GpH7-B3/GpL16-k0 |
| B5 | 91.4 % of GpH7-A5/GpH7-B3/GpL16-k0 |
| B6 | 106 % of GpH7-A5/GpH7-B3/GpL16-k0 |
| B7 | 59.7 % of GpH7-A5/GpH7-B3/GpL16-k0 |
| B8 | 62.1 % of GpH7-A5/GpH7-B3/GpL16-k0 |
| B9 | 101 % of GpH7-A5/GpH7-B3/GpL16-k0 |
| B10 | 60.3 % of GpH7-A5/GpH7-B3/GpL16-k0 |
| B11 | 76.2 % of GpH7-A5/GpH7-B3/GpL16-k0 |
| B12 | 65.8 % of GpH7-A5/GpH7-B3/GpL16-k0 |
| B13 | 55.6 % of GpH7-A5/GpH7-B3/GpL16-k0 |
| B14 | 100 % of GpH7-A5/GpH7-B3/GpL16-k0 |
| B15 | 81 % of GpH7-A5/GpH7-B3/GpL16-k0 |
| B16 | 100 % of GpH7-A5/GpH7-B3/GpL16-k0 |
| B17 | 81.6 % of GpH7-A5/GpH7-B3/GpL16-k0 |
| B18 | 121 % of GpH7-A5/GpH7-B3/GpL16-k0 |
| B19 | 106 % of GpH7-A5/GpH7-B3/GpL16-k0 |
| B20 | 66.2 % of GpH7-A5/GpH7-B3/GpL16-k0 |
| B21 | 79.5 % of GpH7-A5/GpH7-B3/GpL16-k0 |
| B22 | 106 % of GpH7-A5/GpH7-B3/GpL16-k0 |
| B23 | 75.9 % of GpH7-A5/GpH7-B3/GpL16-k0 |
| B24 | 53.8 % of GpH7-A5/GpH7-B3/GpL16-k0 |
| B25 | 100 % of GpH7-A5/GpH7-B3/GpL16-k0 |
| B26 | 104 % of GpH7-A5/GpH7-B3/GpL16-k0 |
| B27 | 102 % of GpH7-A5/GpH7-B3/GpL16-k0 |
| B28 | 101 % of GpH7-A5/GpH7-B3/GpL16-k0 |
| B29 | 55.3 % of GpH7-A5/GpH7-B3/GpL16-k0 |
